# Data from the supplement of paper PMC7125110.
# ± gives the standard error. For part of these data: Variants at the floor of the assay were thinned out.
# B1: glmS ribozyme (parent)
# chain: AUAAAAGCGCCAGAACUACAGAAAUGUAGUUGACGAGGAGGAGGUUUAUCGAAUUUUCGGCGGAUGCCUCCAAA
# Tests used:
# Details in all cases: with glucosamine-6-phosphate
# [1] = variants of: B1; assay: kcat; higher = faster cleavage; RNA array
# Summary of the method: (§1)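 Glucosamine-6-phosphate in HEPES/KCl/Mg(OAc)2 buffer, at 40 μM to 10 mM, was flowed over barcoded ribozyme variants transcribed in situ by E. coli RNA polymerase on sequenced MiSeq chips. Tracking was through a hybridised Cy3 probe at 37 °C. kobs, kcat and KM came from exponential decay fits and weighted Michaelis–Menten fits of normalised per-tile medians.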
# [2] = variants of: B1; assay: self-cleavage kobs at 40 uM GlcN6P; higher = faster cleavage; RNA array
# Summary of the method: as §1
# [3] = variants of: B1; assay: self-cleavage kobs at 640 uM GlcN6P; higher = faster cleavage; RNA array
# Summary of the method: as §1
# [4] = variants of: B1; assay: self-cleavage kobs at 2500 uM GlcN6P; higher = faster cleavage; RNA array
# Summary of the method: as §1
# [5] = variants of: B1; assay: self-cleavage kobs at 10000 uM GlcN6P; higher = faster cleavage; RNA array
# Summary of the method: as §1
# [6] = variants of: B1; assay: KM; higher = weaker cofactor use; RNA array
# Summary of the method: as §1
# [7] = variants of: B1; assay: self-cleavage kobs at 160 uM GlcN6P; higher = faster cleavage; RNA array
# Summary of the method: as §1
Variant,kcat [1] [s⁻¹],self-cleavage kobs at 40 uM GlcN6P [2] [s⁻¹],self-cleavage kobs at 640 uM GlcN6P [3] [s⁻¹],self-cleavage kobs at 2500 uM GlcN6P [4] [s⁻¹],self-cleavage kobs at 10000 uM GlcN6P [5] [s⁻¹],KM [6] [µM],self-cleavage kobs at 160 uM GlcN6P [7] [s⁻¹]
G13A C67G,2.66e-05 ± 2.6e-06,< 1e-05,2.71e-05 ± 1.2e-05,3.63e-05 ± 1.7e-05,2.48e-05 ± 6.5e-06,–,–
A14G G43U,0.000159 ± 2.6e-05,–,3.9e-05 ± 8.4e-06,6.85e-05 ± 8.5e-06,0.000131 ± 1.5e-05,2770 ± 980,–
G13C G29U,0.000169 ± 1.6e-05,–,3.22e-05 ± 1.3e-05,6.58e-05 ± 8.4e-06,0.000125 ± 1.6e-05,3700 ± 710,–
U69C C71U,0.000591 ± 7.2e-05,5.8e-05 ± 1.1e-05,0.000326 ± 9.3e-05,0.000432 ± 9.4e-05,0.000676 ± 0.00011,368 ± 88,0.000208 ± 5.6e-05
A15G A64U,0.000233 ± 2.7e-05,–,3.22e-05 ± 9e-06,9.11e-05 ± 1.2e-05,0.000169 ± 2.4e-05,3870 ± 820,–
G29A C67G,0.00016 ± 1.6e-05,–,4.67e-05 ± 1e-05,8.59e-05 ± 1.7e-05,0.000145 ± 2.5e-05,1710 ± 390,–
G29U G59A,1.03e-05 ± 3.2e-06,< 1e-05,–,–,–,–,–
G29C U55C,0.00285 ± 0.001,5.28e-05 ± 1.7e-05,0.000561 ± 0.0001,0.00116 ± 0.00023,0.00205 ± 0.00062,3510 ± 1600,0.00011 ± 1.7e-05
U30A A42U,1.63e-05 ± 1.2e-07,–,–,–,1.54e-05 ± 7.6e-06,588 ± 46,< 1e-05
A12U U31G,0.0183 ± 0.0087,0.000567 ± 5.6e-05,0.00439 ± 0.00076,0.00841 ± 0.0023,0.0262 ± 0.0045,–,0.00142 ± 0.00026
A6U G66A,0.000205 ± 1.7e-05,–,3.28e-05 ± 1.3e-05,9.12e-05 ± 1.4e-05,0.000155 ± 1.9e-05,3170 ± 600,–
G59C C70G,1.6e-05 ± 3.6e-06,–,–,–,–,–,–
U30C G32U,0.000492 ± 0.00011,–,9.97e-05 ± 1.7e-05,0.000183 ± 2.9e-05,0.000403 ± 5.7e-05,3230 ± 1300,–
U47C A48U,0.000264 ± 3.4e-05,–,9.41e-05 ± 2.5e-05,0.000174 ± 3.2e-05,–,1270 ± 340,–
G13A U47C,8.51e-05 ± 5.3e-06,–,–,–,4.92e-05 ± 1.1e-05,7300 ± 1000,–
A14G G59A,0.000294 ± 1.8e-05,–,6.96e-05 ± 1.2e-05,0.000183 ± 3.7e-05,0.000239 ± 3e-05,2010 ± 250,–
A52U C71U,0.000457 ± 4e-05,–,0.0001 ± 1.4e-05,0.000275 ± 2.9e-05,0.000362 ± 3.4e-05,2130 ± 390,–

Variant,kcat [1] [s⁻¹],self-cleavage kobs at 40 uM GlcN6P [2] [s⁻¹],self-cleavage kobs at 640 uM GlcN6P [3] [s⁻¹],self-cleavage kobs at 2500 uM GlcN6P [4] [s⁻¹],self-cleavage kobs at 10000 uM GlcN6P [5] [s⁻¹],KM [6] [µM],self-cleavage kobs at 160 uM GlcN6P [7] [s⁻¹]
U31C G63U,< 1e-05,–,–,< 1e-05,–,–,–
G40U U49G C71G,0.000114 ± 2.6e-05,–,–,8.01e-05 ± 2.8e-05,9.53e-05 ± 1.8e-05,–,–
U47A U69A,9.51e-05 ± 1.3e-05,–,8.57e-05 ± 2.5e-05,0.000188 ± 8e-05,8.87e-05 ± 2e-05,–,0.00011 ± 4.9e-05
A39G A48U,0.00118 ± 0.00016,–,0.000139 ± 3.1e-05,0.000436 ± 8.7e-05,0.000774 ± 0.00011,5000 ± 1200,–
C50U G63C,< 1e-05,–,–,–,< 1e-05,–,–
A6U U30A A36C,< 1e-05,–,–,–,< 1e-05,–,< 1e-05
A33C A39U,0.000401 ± 2.3e-05,–,5.65e-05 ± 7.9e-06,0.000146 ± 1.9e-05,0.000289 ± 1.9e-05,4000 ± 470,–
A14U G40A,0.0018 ± 0.0003,4.43e-05 ± 1e-05,0.000643 ± 0.00013,–,0.00161 ± 0.00021,1500 ± 450,–
A64U C67A,2.58e-05 ± 3.2e-06,–,–,–,2.41e-05 ± 6.5e-06,–,–
A39G,0.0923 ± 0.019,0.00154 ± 3.7e-05,0.0174 ± 0.0013,0.0472 ± 0.0047,0.075 ± 0.0037,2540 ± 580,0.00433 ± 0.00024
G38U,< 1e-05,–,–,–,–,–,–
U56A U65C,0.00025 ± 5.7e-05,–,0.000242 ± 6.3e-05,0.000177 ± 4.4e-05,0.000248 ± 4.7e-05,–,–
U56A U65A,0.00156 ± 0.00058,4.51e-05 ± 1.1e-05,0.000368 ± 5.1e-05,0.000569 ± 9.2e-05,0.00148 ± 0.00021,–,7.79e-05 ± 1.3e-05
A39C A64G,0.00631 ± 0.0019,0.000169 ± 1.3e-05,0.0014 ± 0.00018,0.00323 ± 0.00045,0.00604 ± 0.00065,1870 ± 760,0.000342 ± 6.2e-05
C11U C50G C58A,0.000158 ± 1.6e-05,0.000112 ± 3.6e-05,0.000189 ± 3e-05,0.000242 ± 0.00011,0.000135 ± 2.2e-05,–,0.00015 ± 1.7e-05
G40C C58A,1.41e-05 ± 2.3e-06,–,–,–,–,–,< 1e-05
